According to US20250197496A1 (EVOLVELMMUNE THERAPEUTICS, published 2025):
Residue numbers refer to the chain shown, from its start. Blank lines part the entries; values can stand above or below the binder they belong to.

How the values were obtained:
[1] = target: T1, human ULBP2 (26-216) P73A on yeast (human, UniProt Q9BZM5 26-216); experiment: yeast display FACS, 1 nM
T1 construct: fused to V5 tag and Aga2
T1 chain: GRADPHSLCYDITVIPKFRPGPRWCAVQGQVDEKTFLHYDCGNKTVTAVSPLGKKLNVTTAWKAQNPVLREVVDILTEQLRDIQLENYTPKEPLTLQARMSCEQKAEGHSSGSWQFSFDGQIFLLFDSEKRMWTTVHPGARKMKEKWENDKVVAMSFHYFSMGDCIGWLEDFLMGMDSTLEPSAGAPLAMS

[2] = target: T2, human ULBP2 (26-216) T72A on yeast (human, UniProt Q9BZM5 26-216); experiment: yeast display FACS, 1 nM
T2 construct: fused to V5 tag and Aga2
T2 chain: T1 chain with T47A, A48P

[3] = target: T3, human ULBP2 (26-216) R95A on yeast (human, UniProt Q9BZM5 26-216); experiment: yeast display FACS, 1 nM
T3 construct: fused to V5 tag and Aga2
T3 chain: T1 chain with A48P, R70A

[4] = target: T4, human ULBP2 (26-216) P92A on yeast (human, UniProt Q9BZM5 26-216); experiment: yeast display FACS, 1 nM
T4 construct: fused to V5 tag and Aga2
T4 chain: T1 chain with A48P, P67A

[5] = target: T5, Human ULBP2 (recombinant) (human, UniProt Q9BZM5 26-217); experiment: BLI, antibody on AHC sensor
T5 construct: bought (R&D Systems) as ULBP2-Fc or ULBP2-His; also called recombinant ULBP2
T5 sequence: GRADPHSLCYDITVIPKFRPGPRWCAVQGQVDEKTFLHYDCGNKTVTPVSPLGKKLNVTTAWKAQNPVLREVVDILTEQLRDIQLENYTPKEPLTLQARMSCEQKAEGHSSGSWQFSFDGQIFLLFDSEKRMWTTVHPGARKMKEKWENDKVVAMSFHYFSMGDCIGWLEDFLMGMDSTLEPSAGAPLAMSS
Experimental: (§1) Bio-layer interferometry (BLI) was performed on the Octet RED384 (Sartorius). […] Subsequently, dissociation was measured over 600 seconds. The kinetic and affinity constants are determined by fitting the data to a 1:1 binding model using the Octet analysis software.

Human ULBP6-His = target: T6, Human ULBP6-His (human, UniProt Q5VY80 26-218, limits assumed); experiment: BLI, antibody on AHC sensor
T6 construct: bought (R&D Systems), His tag; also called RAET1L
T6 sequence: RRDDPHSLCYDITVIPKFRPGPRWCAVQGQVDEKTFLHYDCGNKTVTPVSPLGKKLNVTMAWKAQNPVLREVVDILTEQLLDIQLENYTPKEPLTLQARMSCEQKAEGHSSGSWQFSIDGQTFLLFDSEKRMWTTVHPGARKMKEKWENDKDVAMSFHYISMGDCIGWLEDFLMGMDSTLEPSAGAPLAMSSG
Experimental: as §1

Human ULBP5-His = target: T7, Human ULBP5-His (human, UniProt Q6H3X3 26-223, limits assumed); experiment: BLI, antibody on AHC sensor
T7 construct: bought (R&D Systems), His tag; also called RAET1G
T7 sequence: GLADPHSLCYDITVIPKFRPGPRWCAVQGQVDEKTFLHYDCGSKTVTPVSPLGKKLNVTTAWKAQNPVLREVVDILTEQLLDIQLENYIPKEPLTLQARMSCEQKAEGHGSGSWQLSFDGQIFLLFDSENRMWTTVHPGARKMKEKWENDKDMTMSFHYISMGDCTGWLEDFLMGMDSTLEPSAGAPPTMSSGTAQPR
Experimental: as §1

[6] = target: T8, human ULBP2 (26-216) R106L displayed on yeast (human, UniProt Q9BZM5 26-216); experiment: flow cytometry on yeast displaying ULBP2; unstained control 385
T8 construct: also called Human ULBP2 R106L; ULBP2 R106L
T8 chain: T1 chain with A48P, R81L

[7] = target: T9, human ULBP2 (26-216) displayed on yeast (human, UniProt Q9BZM5 26-216); experiment: as above
T9 construct: also called Wild type; wild-type ULBP2
T9 sequence: T1 chain with A48P

[8] = target: T5, Human ULBP2 (recombinant); experiment: SPR, biotinylated antigen on SA chip
Experimental: Surface plasmon resonance (SPR) was performed on the Biacore 8K+ (Cytiva). Biotin labelled proteins were captured using the Sensor chip SA (Cytiva). […] The association contact and dissociation time are 60-120 seconds and 120-420 seconds respectively. The chip surface is regenerated by injecting 10 mM glycine, pH 1.5, at a flow rate of 30 μL/min for 60 seconds. The kinetic and affinity constants are determined by fitting the data to a 1:1 binding model using the Biacore insight evaluation software.

- Gate 1 Freq. of Total [1]: 44.4%
- Gate 2 Freq. of Total [1]: 29.1%
- Gate 3 Freq. of Total [1]: 1.29%
- Gate 1 Freq. of Total [2]: 41.6%
- Gate 2 Freq. of Total [2]: 31.4%
- Gate 3 Freq. of Total [2]: 0.84%
- Gate 1 Freq. of Total [3]: 54.7%
- Gate 2 Freq. of Total [3]: 14.6%
- Gate 3 Freq. of Total [3]: 0.15%
- Gate 1 Freq. of Total [4]: 44%
- Gate 2 Freq. of Total [4]: 24.3%
- Gate 3 Freq. of Total [4]: 0.59%
- Kd [5]: 0.198 nM
- Kd (Human ULBP6-His): 0.456 nM
- Kd (Human ULBP5-His): 0.345 nM
- MFI [6]: 9160
- MFI [7]: 5180
- Kd [8]: 0.22 nM
- koff [8]: 0.000211 s⁻¹
- kon [8]: 957000 M⁻¹ s⁻¹
B1: E12 (antibody, V domains shown)
VH: QVQLVQSGAEVKKPGASVKVSCKASGYTFTNYDINWVRQAPGQGLEWMGWIYPGDGSTYYNEKFKGRVTMTRDTSTSTVYMELSSLRSEDTAVYYCARSGDYGLYYFDYWGQGTLVTVSS
VL: EIVLTQSPATLSLSPGERATLSCRASQSIGTSIHWYQQKPGQAPRLLIYFASESISGIPARFSGSGSGTDFTLTISSLEPEDFAVYYCQQSNSWPLYTFGGGTKVEIK
notes: humanized; also called humanized ULBP2 antibody E12; anti-ULBP2/5/6 antibody

- Kd [5]: 0.532 nM
- MFI [6]: 828
- MFI [7]: 8030
- Kd [8]: 0.162 nM
- koff [8]: 0.000214 s⁻¹
- kon [8]: 1.32e+06 M⁻¹ s⁻¹
B2: A06 (antibody, V domains shown)
VH: EVQLVQSGAEVKKPGESLKISCKGSGYAFSTSWMNWVRQMPGKGLEWMGRIYPGDGDTNYNGNFKGQVTISADKSISTAYLQWSSLKASDTAMYYCARGGELRLEAMDSWGQGTLVTVSS
VL: EIVMTQSPATLSLSPGERITLSCSASSSIHSNYLHWYQQKPGQAPRLLIYRTSNLASGIPARFSGSGSGTDFTLTISSLQPEDFAVYYCQQGFSIPFTFGQGTKLEIK
notes: humanized; also called humanized ULBP2 antibody A06; anti-ULBP2 antibody
- binding result (Human ULBP6-His): no binding (tested: 250 nM (highest concentration tested))
- binding result (Human ULBP5-His): no binding (tested: 250 nM (highest concentration tested))
